Test results taken from a protein production outcome set (Wang et al. 2014).

Test: label from the status in PepcDB records

Sequence | protein production
MTTEPAQALSPLGVLPPAGPTCVHLPLNVTPQELARYAVGLANARGGTVMVGVDVVGQEHAERDAGELHPLMITHAIFELSGGRLTVNVQHHRVPGGARVLTVFVPQAPYVLAAPDGAVMAWDGAHLVPVLPGEGEPVADRDYTAVVPPDASLADLDPAEVARLRLLGRRIDAANLPDLDFLQELGLLVPSGGALRPTLAAILLAGTDAALRAHLPQAEVCYFHHQANDVEFQFREDLRRPIPSLLLRLSELIQARNRFTPVQVGLFRVEVWDHDESVYREALLNALTHRDYTLRDVVHVHHYPDRLEIMNPGGFPGGITPGNILRHQPKRRNPLLAGVLARLGLVEQAGVGVDKMFSLMLRHGKEPPEYVNYPDAVTLTLHGSAFDSDFVRFVARKQEELPQLSLDMLIVLSLLSREGEAPRAQLARALQLPEDRTPRLLRQMEDLALITRAGIGRGIAYHLAPDVAAALGQEKQRGLSALPGLPEPAERPTLLAPPAAVAPAPAPAAPRRVSEPAPTSHAGPSPSETRAIALALARERGRVRNADLREVCGLTNQQAWRALRSLVNAGLLRRLGSGTRDAYYELGEGAGRREEG | failed
MTTFTGHLTDAQAQRLVDGTLLEAEADEVLAHAGDCAECQALTESYRVLGDALGEALGALEVPELPRDFTAGVLSRIDARERAVRRERRFAAAILAAVLVAIGVTVVVAGAGTWAPAASRLAGGLGSAGEVLRLGAGLAGTLLSALRFPLALACTALAVPLLFALSRLIPSARAELA | failed
MTTHHETYTAPPFGPALMLNAFAPSRGWNPKDGFPDFSFIWRGYQISPAALATLQRAAGRDDAATADRLILLAPHVTGFRLTMALLMCRDWPLPIWRALQLRNRLIRSGDIKLDAASDLIVRAIGWRVHDKGIELDVLAQLMQGGDCPWQSITTFYYRGRFDGPASHGADDGAPMASPPIDPSLPPMTQWTVDGGERLRWAALTGDYNPLHLVDIYARATGFAAASAHPQRIAAQCLGHLAPTPEHPTQLDLWLKGPVYFGRSASLREASNDDGTTFGLWIDGDDRPAMVGVMR | failed
MTTHQVKKSEAKRQHILDSGFHLVLRKGFVGVGLQEILKTSGVPKGSFYHYFESKEAFGCELLKHYISDYQIRLNQLWTTETSARDKLMNYLQCWVKDPATEQSWAESCLIVKMAAEVADLSEDMRLIMNDGVKRLIARMADLIRIGQQEGSIQTSVVPDVLAQVIYQMYLGAALLSKLYKHKAPLFQALESTKMMLDGCNHVQQDKNQ | not failed
MTTIPSTAEAKLEMLTTINRAIAGSRPEALPPYPVPAPLSRAEILHQFEDRILDYGAAYTHVSAAELPGAIAKALGNARRVIVPAGIPAPWLTVGMDVLRDEPPLSHAELDRADAVLTGCAVAISETGTIILDHRADQGRRALSLIPDFHICVVREDQIVQTVREGVEAVAASVREGRPLTWLSGGSATSDIELVRVEGVHGPRRLQVIVVG | not failed
MTTKDISRPVCILGLGLIGGSLLRDLHAANHSVFGYNRSRSGAKSAVDEGFDVSADLEATLQRAAAEDALIVLAVPMTAIDSLLDAVHTHAPNNGFTDVVSVKTAVYDAVKARNMQHRYVGSHPMAGTANSGWSASMDGLFKRAVWVVTFDQLFDGTDINSTWISIWKDVVQMALAVGAEVVPSRVGPHDAAAARVSHLTHILAETLAIVGDNGGALSLSLAAGSYRDSTRVAGTDPGLVRAMCESNAGPLVKALDEALAILHEAREGLTAEQPNIEQLADNGYRSRIRYEARSGQRRAKESVSPTITSSRPVLRLHPGTPNWEKQLIHAETLGARIEVF | not failed
MTTKFVVGYDGSAASRRALDFAMERAKAGGASIIVAHVLEWSPYSFLTPTEIEERHKRRAEEMARAETAILAPLKAELAGSGVEIETAIRYGQVADTLCDIATKSGAAQIFIARQGESGLAARVFGSVAGTLAQYAPVPCTIVP | failed
MTTKNMNTPPGSTQENEIDLLRLVGELWDHRKFIISVTALFTLIAVAYSLLSTPIYQADTLVQVEQKQGNAILSGLSDMIPNSSPESAPEIQLLQSRMILGKTIAELNLRDIVEQKYFPIVGRGWARLTKEKPGELAISWMHIPQLNGQDQQLTLTVGENGHYTLEGEEFTVNGMVGQRLEKDGVALTIADIKAKPGTQFVLSQRTELEAINALQETFTVSERSKESGMLELTMTGDDPQLITRILNSIANNYLQQNIARQAAQDSQSLEFLQRQLPEVRSELDQAEEKLNVYRQQRDSVDLNLEAKAVLEQIVNVDNQLNELTFREAEISQLYKKDHPTYRALLEKRQTLEQERKRLNKRVSAMPSTQQEVLRLSRDVEAGRAVYLQLLNRQQELSISKSSAIGNVRIIDPAVTQPQPVKPKKALNVVLGFILGLFISVGAVLARAMLRRGVEAPEQLEEHGISVYATIPMSEWLDKRTRLRKKNLFSNQQRHRTKNIPFLAVDNPADSAVEAVRALRTSLHFAMMETENNILMITGATPDSGKTFVSSTLAAVIAQSDQKVLFIDADLRRGYSHNLFTVSNEHGLSEYLAGKDELNKVIQHFGKGGFDVITRGQVPPNPSELLMRDRMRQLLEWANDHYDLVIVDTPPMLAVSDAAVVGRSVGTSLLVARFGLNTAKEVSLSMQRLEQAGVNIKGAILNGVIKRASTAYSYGYNYYGYSYSEKE | failed
MTTKRVNTATNKIMTLNTFLDTCFLLFISILFYLSIPIYPNKVVVVPQGSLKKVFFSLKEQGVDMNALDLLFLRLMGMPKKGYIDMGDGALRKGDFLVRLIKAKAAQKSATLIPGESRYFFTQILSETYQLETSDLNQAYESIAPRLNGEVIEDGVIWPDTYHLPLGEDAFKIMQTLIGQSMKKHEALSKQWLGYYHKEEWFEKIILASIVQKEAANVEEMPLIASVIFNRLKKGMPLQMDGALNYQEFSHAKVTKERIKTDNTPYNTYKFKGLPKNPVGSVSLEAIRAVIFPKKTDFLYFVKMPDKKHAFSATYKEHLKNINLSNNHF | failed
MTTLQLFESVNAFVWGPPLLALLVGTGIYLTIRLGLLQVVRLPLALRYVFGRDDEHHEEGDVSSFAALCTALAATIGTGNIVGVATAVAAGGPGALFWMWVAAFFGMATKYAEGLLAVKYRVTDANGQMSGGPMYYLERGLGSRMLARAFALCGILVAFFGIGTFAQVNAIKDAASLSLGIPPLATAVVLTTTVALVTLGGLRSIARVAEKVVPFMAVFYIIASCAVLVMHLDRIPDAVMVILHSAFNPQAALGGAAGMTVLTAMRAGVARGVFSNESGLGSAPIAAAAARTKSCVRQGLISMTGTFFDTIVICTMTGLVLVVTGVWNDPQLAGAAMTNAAFAAGLESSLGQYAATLGLILFAFTTILGWNYYGERCTEYLFGVRGILPYRLVFIGLVAAGAFVHLELIWVLADIVNGLMAIPNLIGLLGLSGVIIAETRAFFEADAPSVDAPCGSDADNASGACPRA | failed
MTTLVLVSHPHLADSTSQQFLKASINSDEVLWEHIESQATIDIEKEQAQLRQADRIILQFPLYWYAAPAGLKQWEDTVLTRTFVYGDHRYPLAGKELGIVVTTGMPAKAFQRGGAEQITLDAALAPLAAVANRAKMKWLPTFAIHQFAYLDEPAKLQLVVDYQRYLTQTQPDNLQNKQAWFAQHLPAMIERLPLEQQQAGQLILTAFEQQQTDLEALTDTLGLIKEQEDD | failed
MTTNIAANSGGIVFHFLGTGGAQQVPAFGCECEVCQQAQRNESKRRRACCAAITTKDRIILIDAGLPELSPYLLPYPQRHILLTHYHMDHVQGLFPLRWGYGEPIPVFGPPDEAGCDDLFKHPGILHFQKPLMAFQPFELDGIRITPVPLIHSKLTYGYLIQTPTHTLAYLTDTIGLPPETTQFLASHTLDYAIVDCSHPPQTMLPRNHNDITRALEIFTQLNPKQLYLTHISHELDRWLQTQTLLPENVHAAYDGLVLGLLEHHHHHH | failed
MTTNRETVLSMAKRKRSVVAINASGWRSNGEVMGLQIKDGVLYKDYDAAGYTGAEACVFFDDGTMKVYGNREVDADILISKGARNSFAFGIWLVKDSKPRTAQMTTWADLNVKHPRQAIGQRSDGTLVIITVDGRSLRSSGITAYDMPSLFLSEGCINAFLLDGGGSSQTAVEGKYINNISDGIERAVVDTLTISYPDDLEHHHHHH | failed
MTTPAPVPRITVLLPVYNGEQYLREALDSLLTQTYRNFSLLAVDDGSTDSSLEILRSIKDPRLSVKVNPRNRGLINTLNESLDLIQSEYVARMDADDIATPYRLEEQLAFMDAHPDVGLCGGYYERFTDTESIVVRPPTTHEDISYALIFDNVMAHNTVMFRRSVLERYRLRYDPAFAYAEDYELWVRFARYSRLANLPRVLVRYRFHPANTSSRFRHEQQIAAAKIRHIHRTNLGLEPRPGDAALHRQLFDMRFEGDLPELTAAGIWLSKLYRVGVRRCRQNPVSTFLEFNKLWYSACGRLADHGLKVFAQFLRQPFGFLGNPAYTLKLAYRCWRRIRIALEHHHHHH | failed
MTTPPLRIGLIGAGYIAAWHADALRAVPGVKLTAVCDPNMDLAEGLAAAHGARAFGDLDDLIGAGLCDGVHILTPPDLHHPLALHCLRAGLHVLVEKPVALNAAQTQEIEDAARAANRRFHAGHNFLGLPSYTRLKREIRRGALGRVSGAEIRWCYPFGPLRAGPFGIWPLRDTRNLMLEFGPHLMSLVIDLFGLPEIEHVALSKPVALPGAGTRPQGWRILARAGEVELVLILSLVETADDRSVTIRGSSARARLDLAADTLVIDAENTADLVANPLLRQLSLARQHLVQGSVNAARQLTSFNRKSPYALSFRGLANGIWEPLAQNAPADPRWSGSSAVAVMTALDAVLERVDWPAPVPASPSRKPAPSAMVIGGTGFIGRALTRELVARGSDVRVISRGRQGSFADLPDQVETVSLSLRDTEGLARAMAGIDTVYNLARSTDSSWEDCLQNDVAVAEGIGKAALAAGVRRLVYTGTIASFDMSDPAATITDATPLPDEMDERNLYARSKAECERRLMALHRQSALPLVIARPGIVLGAGGPLQHWGIGRWHGAGAVRLWGNGRNPLPFVLIGDCVDGLIRCAEAEGIEGRAFNLVGPPILSARDYFDAIHDRLGARIRVSGGNLSLMYAADWVKFQLKTRVLGRSGLTRPSRADWLSRAHQSRFDISGARSALGWHPVSDADAFLTNAVDEAGLLGF | failed
MTTPRPEYPRPHFDRSHSWLTLNGTWDFRADPAEAYSADASDGYDRAITVPFAWETPASGIAEHWLRTAWYRRTFTVPADWAGQRVVLHFGAVHHAATVWVNGTEVAHHEGGYTPFAADVTDALGDGEHQLTVRVHAPADKRDIAHGKQRSMPRDDYDGVCFTPSSGIWQSVWLEARPATHLAALRLRPNDDLTGITVEAVVHGPAADRAELRLRVRDEDTAVTATLDPDGRLATELPLSAPRLWSPEDPHLYHVDAELTSADGTDRVAAYTGLRTVTVDGESLYLNGRRLFVRGVLDQGYWPETGITAPDDAALRRDIELAAEAGYNLVRKHLKLEDPRFAHHADTLGMLLWAEPASPGRFSPASTAAFAEQIEPMVERDGNSPAIVIWGLYNEEWGLDWDIPGDPAKQRATADAYDRLKALDPTRPVVDNSGWTHVKTDLLDWHYYDESAASWATTVADLLSGERDDFPVKLGPDFVVRKKLAVPGQPLRGLPNLNSEYGGGFTGLDRAWHLRWQTQELRRHDRLAGYVYTELYDIEHESAGLLDFGRGAKDLAGVDPAHANAPTTLVLDVTPVAPGRDLLTTGPDFTVDVHVSHHGDDPVAGTVHTTWTPVYARTPDAPGDAVPGCRAEAKPYVLGAAVTVPAALPDGWTSGRLHLALVVDGTVAARTALDVDTRTDPYIGDDPQARPTA | failed
MTTPRRALIVIDVQNEYVTGDLPIEYPDVQSSLANIARAMDAARAAGVPVVIVQNFAPAGSPLFARGSNGAELHPVVSERARDHYVEKSLPSAFTGTDLAGWLAARQIDTLTVTGYMTHNCDASTINHAVHSGLAVEFLHDATGSVPYENSAGFASAEEIHRVFSVVLQSRFAAVASTDEWIAAVQGGTPLARGNIYASNQKARARRATA | not failed
